The values that follow come from PMC12431652.

The target of this test is Tripartite Motif Protein 28 (TRIM28), endogenous in HEK293T cells (UniProt Q13263). As to the kind of experiment: co-immunoprecipitation (anti-FLAG IP, western blot band quantification). To be noted: for percent of parent (rel. (PIV2-V = 100)): HEK293T cells transfected for 24 hours, n = 3, parent: 100, read off a plot. In general terms: A western blot detects proteins with antibodies after separation by electrophoresis.
Sequence of UniProt Q13263 (Q13263 whole entry): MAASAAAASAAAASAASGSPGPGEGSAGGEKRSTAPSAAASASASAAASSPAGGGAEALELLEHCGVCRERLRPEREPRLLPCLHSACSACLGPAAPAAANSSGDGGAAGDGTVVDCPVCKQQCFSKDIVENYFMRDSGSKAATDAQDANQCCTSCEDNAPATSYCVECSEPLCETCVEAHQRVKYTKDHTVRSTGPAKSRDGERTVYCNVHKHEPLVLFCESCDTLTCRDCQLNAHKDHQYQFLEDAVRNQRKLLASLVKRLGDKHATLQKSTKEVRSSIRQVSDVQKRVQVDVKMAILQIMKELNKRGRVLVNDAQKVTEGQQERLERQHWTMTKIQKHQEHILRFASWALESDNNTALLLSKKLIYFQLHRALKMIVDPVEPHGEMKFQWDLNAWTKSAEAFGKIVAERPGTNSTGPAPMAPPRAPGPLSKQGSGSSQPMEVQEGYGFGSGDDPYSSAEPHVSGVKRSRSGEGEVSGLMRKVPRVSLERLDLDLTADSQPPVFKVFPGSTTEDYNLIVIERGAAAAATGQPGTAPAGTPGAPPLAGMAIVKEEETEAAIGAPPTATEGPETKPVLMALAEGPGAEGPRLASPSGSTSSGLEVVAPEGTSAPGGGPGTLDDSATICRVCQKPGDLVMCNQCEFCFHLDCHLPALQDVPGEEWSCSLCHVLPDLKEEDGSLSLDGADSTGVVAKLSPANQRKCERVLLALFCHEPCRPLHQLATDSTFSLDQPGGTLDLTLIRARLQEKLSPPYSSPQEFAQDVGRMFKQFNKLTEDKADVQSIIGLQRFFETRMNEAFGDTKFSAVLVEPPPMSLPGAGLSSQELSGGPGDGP

With “FLAG-tagged full-length PIV2-V (pCMV7.1_3xFlag) (from UniProt P19847) A181G”, the percent of parent (rel. (PIV2-V = 100)) stood at 110.

“FLAG-tagged full-length PIV2-V (pCMV7.1_3xFlag) (from UniProt P19847) F190T”: the percent of parent (rel. (PIV2-V = 100)) was 130. Take “FLAG-tagged full-length PIV2-V (pCMV7.1_3xFlag) (from UniProt P19847) Q186E”: the percent of parent (rel. (PIV2-V = 100)) came to 130.

With “FLAG-tagged full-length PIV2-V (pCMV7.1_3xFlag) (from UniProt P19847) W178Y”, the percent of parent (rel. (PIV2-V = 100)) was determined as 50. As for “FLAG-tagged full-length PIV5-V (pCMV7.1_3xFlag) (from UniProt P11207) Y175W”, the percent of parent (rel. (PIV5-V = 100)) (n = 3, parent: 100, read off a plot) came out at 310.
